Reference: the supplement of paper PMC12042874
± gives the uncertainty stated by the source.

Experiment: amyloid nucleation score (Sup35N fusion, yeast selection) (log enrichment); library NNK3; higher = more nucleation; inactive = no reads after selection
Method in brief: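 DiMSum was used to calculate nucleation scores as log enrichment of output over input reads, centred on the mode score of non-aggregating sequences. Sequences with fewer than 100 input reads were not scored. Input and output came from Illumina sequencing of plasmid inserts in psi-negative yeast expressing peptides of 20 random codons fused to Sup35N, induced 24 hours with 100 μM copper sulfate and then grown 7 days at 30°C on medium lacking adenine and uracil.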
With YALLKHSTWYRVGQF the amyloid nucleation score was “inactive”. In the case of MNFSEH, the amyloid nucleation score is reported as “inactive”. For EVFEWSVRLFSTL, the amyloid nucleation score was “inactive”. For LEDSLPQIPTQIVGWWFLKM, the amyloid nucleation score was “inactive”. In the case of VFNKCVQFYFILGRNNEIWI, the amyloid nucleation score is reported as 2.56 ± 0.077. For MLARHCQQGGRDHPWLGSVL, the amyloid nucleation score was “inactive”. With IYWLSDN the amyloid nucleation score was “inactive”. With YNKGFALIRIVRQTERRLHT the amyloid nucleation score was “inactive”. With ISHCMVLRNA the amyloid nucleation score was 2.49 ± 0.086. MINCISNMVISIGSKRTYPS gave an amyloid nucleation score of 2.5 ± 0.068. In the case of RVHFVYIRWFYVRRDGWFSG, the amyloid nucleation score is reported as “inactive”. For GNELQSEFLDFLTCRERGKG, the amyloid nucleation score was “inactive”. In the case of VSLKVFYGNKDARNRDIPTL, the amyloid nucleation score is reported as “inactive”. In the case of FFQESYLGMDLYELSTYNNV, the amyloid nucleation score is reported as “inactive”. For SFPFDLFGNIVW, the amyloid nucleation score was “inactive”. For ILQVFKIMFKRRGLSFHLGI, the amyloid nucleation score was “inactive”. In the case of RLVVNQHSPDKP, the amyloid nucleation score is reported as “inactive”. With SFFRNRGGEDFFISWWFENN the amyloid nucleation score was “inactive”. PNISGGDAIEGLFFFRVGRE gave an amyloid nucleation score of 1.04 ± 0.14. For LQPCKNMSTLSQNPTLRCPF, the amyloid nucleation score was “inactive”. In the case of LDSAYRTVDGSICTTSYREH, the amyloid nucleation score is reported as “inactive”. In the case of DMIINILRSDYQWWSAN, the amyloid nucleation score is reported as “inactive”. For ESRSFCLNCQGWVSSEA, the amyloid nucleation score was “inactive”. For TSAYGMSSWGFWS, the amyloid nucleation score was “inactive”. For LLDCFKLYSSHLAEGRTTVT, the amyloid nucleation score was “inactive”. RMILFFVARSSKMGIGTFGF gave an amyloid nucleation score of 0.868 ± 0.21. For TYLLYCCVVVR, the amyloid nucleation score was “inactive”. With IWVENQFDRRFLGVSMF the amyloid nucleation score was “inactive”. For MLLIVTSCYISAPNAVSPGW, the amyloid nucleation score was -0.563 ± 0.84. In the case of VYILFNWSRPSCHLIEHFRA, the amyloid nucleation score is reported as “inactive”. HTGMHCTMGESRTSV showed an amyloid nucleation score of 0.375 ± 0.18. With SSKARSQSCVLRMMIPDRQW the amyloid nucleation score was “inactive”. For SFPASFSYRNGFVWLNFWVV, the amyloid nucleation score was “inactive”. In the case of NGVMGRGLYTKSQRSYCDNN, the amyloid nucleation score is reported as “inactive”. For IREFSNI, the amyloid nucleation score was “inactive”. With CSMPWLRSSTGGGVLLIEKS the amyloid nucleation score was “inactive”. In the case of RSMRSQSSLQAHQSIRSEGR, the amyloid nucleation score is reported as “inactive”. With ECLLPKIAMHVKRMVPQFGT the amyloid nucleation score was “inactive”. For DLAINGSAAQTVVLRAERSY, the amyloid nucleation score was “inactive”. With LLQSLGGKESNLGK the amyloid nucleation score was “inactive”. In the case of GCLRDPTVAQVDYLGYGVRL, the amyloid nucleation score is reported as “inactive”. For GVMGYSSYSLSAENTVYSPW, the amyloid nucleation score was “inactive”. In the case of SFRSPMDIVLLFVMCSVLAR, the amyloid nucleation score is reported as “inactive”. YANWLVLILYG showed an amyloid nucleation score of 1.32 ± 0.11. With LMQFLAQLTSLSLSLLEVIW the amyloid nucleation score was “inactive”. For FRSTCTFHCMERSRLRISPK, the amyloid nucleation score was “inactive”. For PEFYA, the amyloid nucleation score was “inactive”. With SSAGVGVAKVGARHRLRRCW the amyloid nucleation score was “inactive”. For TYGNLFNNCDKIYRRQNRSL, the amyloid nucleation score was “inactive”. For MWVLSV, the amyloid nucleation score was “inactive”. In the case of GRVSYCITRME, the amyloid nucleation score is reported as “inactive”. With MAMDCLISTALVLLVKYASV the amyloid nucleation score was “inactive”. For VDKWSCVDNFFSY, the amyloid nucleation score was “inactive”. With PTSFLVYRMKRWFRASMSSR the amyloid nucleation score was “inactive”. With SLKMK the amyloid nucleation score was “inactive”. In the case of YNLDDIDSITLYLAVSLCKV, the amyloid nucleation score is reported as “inactive”. In the case of GTWSVMCSYEPMAR, the amyloid nucleation score is reported as “inactive”. In the case of VSLMMCVVPFMPVLQHMSNA, the amyloid nucleation score is reported as 0.793 ± 0.16. In the case of LCVIVTAVKGFTVPWHNFFL, the amyloid nucleation score is reported as “inactive”. For YVYDCYAAQHVY, the amyloid nucleation score was -0.213 ± 0.77. With DQGNPSNSSLDLPLGGSFGE the amyloid nucleation score was “inactive”. For LLSTTSAVAGGMACVSRNMW, the amyloid nucleation score was “inactive”. With ACLLLSDLNY the amyloid nucleation score was “inactive”. For RGQRVSSVMRRTQVGDWNTP, the amyloid nucleation score was “inactive”. With SCLRGNTAKFFSKVSRVCDK the amyloid nucleation score was 0.133 ± 0.98. For NEIFIRLLSNMKEPR, the amyloid nucleation score was 1.31 ± 0.14. LLMDYYFVGLKLVPFAVPKV showed an amyloid nucleation score of 1.22 ± 0.15. In the case of FCLLIRAVSPCLTSGRIILV, the amyloid nucleation score is reported as “inactive”. For CHHLRWDNCVRREELDFTCV, the amyloid nucleation score was “inactive”. With GFLSGVKVLNGGEDNDTLPE the amyloid nucleation score was “inactive”. VMGVAPSYASTYLLVILNMG showed an amyloid nucleation score of 1.39 ± 0.15. ILASKALQQLLQGLTLV showed an amyloid nucleation score of -0.375 ± 0.98. For VKRADNSSSALRWYLNMYNL, the amyloid nucleation score was “inactive”. With TFFLYVKIRVALNIRVPGVR the amyloid nucleation score was “inactive”. For LLSIYCY, the amyloid nucleation score was “inactive”. In the case of GRIFYWRDMDTYQR, the amyloid nucleation score is reported as “inactive”. With KARLLMWS the amyloid nucleation score was 0.181 ± 0.28. For HINDAYTCVMLYMGLTRWTI, the amyloid nucleation score was “inactive”. GSPVRWRGPGFTSPRLTRA showed an amyloid nucleation score of 0.766 ± 0.26. For WYMHTTLD, the amyloid nucleation score was “inactive”. With VVLWWS the amyloid nucleation score was “inactive”. In the case of FIALIYVIIPDIEGSVYVSN, the amyloid nucleation score is reported as “inactive”. Substance IGEMNTPMPAMKFVMRWLDH has an amyloid nucleation score of 0.845 ± 0.13. With TYKHNSTYIKPLTSFLQSGG the amyloid nucleation score was “inactive”. With VFDPGLSNCWRVTGWNED the amyloid nucleation score was “inactive”. For MILLLGLDRKHSSGESKALI, the amyloid nucleation score was “inactive”. For VGSQEANLAVGI, the amyloid nucleation score was “inactive”. With TRALT the amyloid nucleation score was “inactive”. For PLCFLFNQFSYGA, the amyloid nucleation score was “inactive”. For DCFMGPLVSNCGFYECRLSV, the amyloid nucleation score was “inactive”. In the case of CSLRPNSERTSVIYNALHVN, the amyloid nucleation score is reported as “inactive”. With NGDGLVLYIRLLRLRRHVDT the amyloid nucleation score was “inactive”. For CSTYSRLRYIAYCWVVRP, the amyloid nucleation score was “inactive”. With YYNSGSLNTYPVNLNLDNFH the amyloid nucleation score was “inactive”. In the case of CGTCSDYGYHFGCTDRGVDC, the amyloid nucleation score is reported as “inactive”. For YSRFDWVNLVIVGHYRTLFS, the amyloid nucleation score was “inactive”. In the case of DSWTAACAHSR, the amyloid nucleation score is reported as “inactive”. For LWDRVNCFYFRDEGDELEER, the amyloid nucleation score was “inactive”. In the case of YTYQTLLADLNKGFMYSRRW, the amyloid nucleation score is reported as “inactive”. For VWAYFDMFDTFCYKVTARMK, the amyloid nucleation score was “inactive”. In the case of RLGRSLRLIVMITG, the amyloid nucleation score is reported as “inactive”. With DSSFLATFFILVTGCCLLVD the amyloid nucleation score was “inactive”. With NVLALECVRDWT the amyloid nucleation score was “inactive”. With WKPGRYSTKAPQLEVPERHV the amyloid nucleation score was “inactive”. In the case of GFSTYRIKIVYDVNMY, the amyloid nucleation score is reported as “inactive”. In the case of GKIFMSVTFF, the amyloid nucleation score is reported as 2.43 ± 0.054. With QWFRKLFYLTSLEDAPQIPR the amyloid nucleation score was “inactive”. With IVTTQHMNGRSDYWITYSSV the amyloid nucleation score was -0.447 ± 0.74. With QSEALNNFWVGSILSYMVLG the amyloid nucleation score was “inactive”. For WSRSSADRVII, the amyloid nucleation score was -0.471 ± 1.5. In the case of STDWDFHMRTFPGHVTKCWK, the amyloid nucleation score is reported as “inactive”. Work on MILNINVMYYFMYEGKIVMP yielded an amyloid nucleation score of 2.7 ± 0.049. In the case of NWFPGTRGRLLQVTLGYLVD, the amyloid nucleation score is reported as “inactive”. With RFFVNL the amyloid nucleation score was “inactive”. With YRDRIVNHIVGLLGIGS the amyloid nucleation score was 1.16 ± 0.11. GFHTI showed an amyloid nucleation score of -0.223 ± 0.73. For FHPFMCSYGSGWDGRLVHCG, the amyloid nucleation score was “inactive”. In the case of TEQNVSGCEGEGSYGYTRYA, the amyloid nucleation score is reported as “inactive”. With VREFYN the amyloid nucleation score was “inactive”. Work on GDTHHCAADGV yielded an amyloid nucleation score of 0.504 ± 0.24. For NPRVYNMIQPAYVNWSMDVT, the amyloid nucleation score was “inactive”. With TVKMRKFRRGTFRDMDIYWR the amyloid nucleation score was “inactive”. With RYVLR the amyloid nucleation score was “inactive”. In the case of VLYSCERKELVIGMKVLVWE, the amyloid nucleation score is reported as “inactive”. With IVQVV the amyloid nucleation score was “inactive”. In the case of RKLFGSHS, the amyloid nucleation score is reported as “inactive”. In the case of RQNVWTLVPLVKFRLSNTQT, the amyloid nucleation score is reported as “inactive”. With IVESQRDASVLRSIPSIRIN the amyloid nucleation score was “inactive”. For RQILSFWP, the amyloid nucleation score was “inactive”. For RLSGKTPCAK, the amyloid nucleation score was “inactive”. With TSVSKFKPVLHYNRTGSHGF the amyloid nucleation score was “inactive”. For QLCFGVMLRCSCCGKQVWEK, the amyloid nucleation score was 1.84 ± 0.1. For HLLTAVILITIGVNRVTWWG, the amyloid nucleation score was “inactive”. In the case of GLTVCTSYLSISAYDMYANL, the amyloid nucleation score is reported as 1.29 ± 0.067. In the case of VVMIPNIFCDWRGNGNNQCG, the amyloid nucleation score is reported as 1.33 ± 0.11. With WVWIVSMVRRGSEAFEALEM the amyloid nucleation score was “inactive”. For TNLLM, the amyloid nucleation score was “inactive”. In the case of RLITNNVTS, the amyloid nucleation score is reported as “inactive”. With TKLCQSLRHAQRGTRTTSFS the amyloid nucleation score was “inactive”. LNLSLVNCLMAVTCSLFL gave an amyloid nucleation score of 1.44 ± 0.13. Work on LFMMCGHMEYAIVKNRVDKS yielded an amyloid nucleation score of 0.016 ± 0.46. For RLYYRLQTKQAVWCNHPAPT, the amyloid nucleation score was “inactive”. In the case of FIRGVSYDFIDRSIILFLEV, the amyloid nucleation score is reported as “inactive”. For MTESNGGFPG, the amyloid nucleation score was “inactive”. QKHNSIFMLAVCCYKSCKQ showed an amyloid nucleation score of 1.07 ± 0.084. With CLPVARGQMR the amyloid nucleation score was “inactive”. In the case of GDLKLGLVIYESCGSMVMSW, the amyloid nucleation score is reported as “inactive”. Substance QLVFYHVDLHILPFWSAI has an amyloid nucleation score of 2.15 ± 0.081. In the case of VEGCMIFMVVSLLKHYASYT, the amyloid nucleation score is reported as “inactive”. For YIVRDNEAYRKYGSANESGC, the amyloid nucleation score was “inactive”. For DFVDARFWQIFGFSNAEQGL, the amyloid nucleation score was “inactive”. In the case of AIRFVNPMFSFWVSNWNYAG, the amyloid nucleation score is reported as “inactive”. In the case of HLDQNLWPKQKQAHTLRTKW, the amyloid nucleation score is reported as “inactive”. For SKESCRCLSWCGPEPRSCIA, the amyloid nucleation score was “inactive”. With NFCNLLFR the amyloid nucleation score was “inactive”. With RSDVI the amyloid nucleation score was “inactive”. With LENLLGMWVSCAWLSGSHFV the amyloid nucleation score was “inactive”. In the case of RQLMRSDPAMGTICERY, the amyloid nucleation score is reported as “inactive”. In the case of MIHAFGFLMMCLVQSYLELF, the amyloid nucleation score is reported as “inactive”.
